The tissue uptake is the share of the injected amount in each gram of the tissue. A higher tissue uptake goes with strong accumulation. The term logP denotes the decadic logarithm of the partition coefficient of the neutral form, usually between octanol and water. A low value points to a more hydrophilic compound.

The nature of data set [1]: Ex vivo organ distribution in B16F10 tumor-bearing mice. More on the design: species or system C57BL/6 mice. The note with it: mouse, iv. How it is done: (§1) To accomplish post-imaging organ distribution investigations, 9.36 ± 0.67, 6.34 ± 1.07 and 2.39 ± 0.19 MBq of ^68Ga-labeled-^177Lu-labeled-and ^205/206Bi-labeled […]-based probes were iv. Injected, respectively, into the lateral tail vein of both the tumor-naive and the melanoma tumor-carrying experimental mice. Ninety-minutes ([^68Ga]Ga-DOTA-[…]-DOTA-[…]; [^205/206Bi]Bi-DOTA-[…]; [^205/206Bi]Bi-DOTA-[…]) and 24 h ([^177Lu]Lu-DOTA-[…]; [^177Lu]Lu-DOTA-[…]) post tracer administration, mice were sacrificed under Forane-induced inhalation anesthesia. Then, the tumor, the blood, and selected organs and tissues were removed, weighed wet and measured for radioactivity applying a calibrated gamma counter (Perkin-Elmer Packard 406 Cobra, Waltham, MA, USA). The counts per minute (CPM) figures for each sample were converted to percent of administered dose per gram of tissue (%ID/g).

The nature of a further data set: in vivo. Also noted: species or system C57BL/6 mice. The note with it: C57BL/6, mouse, iv, total radioactivity. The protocol: At 9 ± 1 days post tumor implantation, at an average tumor bulk of approximately 120 mm^3, the tumor-naive and the B16F10 tumor-bearing mice were intravenously (iv.) injected with 9.36 ± 0.67 MBq of [^68Ga]Ga-DOTA-NAPamide or [^68Ga]Ga-DOTA-IPB-NAPamide via the lateral tail vein. After a 90-min-long tracer distribution time, the study mice were subjected to whole-body static PET acquisition (10 min scans at each bed position) under isoflurane-induced anesthesia (AbbVie, Budapest, Hungary; OGYI-T-1414/01) applying a preclinical MiniPET-II small animal PET device (Division of Nuclear Medicine and Translational Imaging, Department of Medical Imaging, Faculty of Medicine, University of Debrecen).
Three-dimensional ordered-subsets expectation-maximization algorithm (3D OSEM) was used for PET image reconstruction. Three-dimensional ellipsoidal volume of interests (VOI) were manually placed around the border of the organ/tissue activity to calculate their radiotracer concentration. The radiopharmaceutical accumulation was presented as standardized uptake values (SUVs). The following formula was applied for the determination of the SUV parameter:SUV (g/mL) = [VOI activity (Bq/mL)]/[administered activity (Bq)/animal weight (g)]

Data set [2] is classed as physicochemical. The protocol:
After the dilution of the purified radiotracers ([^68Ga]Ga-DOTA-[…]-DOTA-[…], [^205/206Bi]Bi-DOTA-[…], [^205/206Bi]Bi-DOTA-[…], [^177Lu]Lu-DOTA-[…], [^177Lu]Lu-DOTA-[…]) (50 μL, 1-3 MBq) with 450 μL water, 500 μL n-octanol was added to each sample. […] The activity of the samples from n-octanol phase (20 μL) and aqueous phase (20 μL) was analyzed with gamma counter. The procedure was performed in triplicate. For [^68Ga]Ga-DOTA-[…]-DOTA-[…], [^205/206Bi]Bi-DOTA-[…], [^205/206Bi]Bi-DOTA-[…], [^177Lu]Lu-DOTA-[…], and for [^177Lu]Lu-DOTA-[…] the logP values were -3.46, -2.12, -3.65, -2.32, -2.6, 1.26, respectively.

Data set [3] concerns B16F10 tumor-bearing mice. The data set is described as follows: Ex vivo organ distribution in B16F10 tumor-bearing mice. More on the design: species or system C57BL/6 mice. The note with it: mouse, iv. The protocol:
as §1

`CCCC[C@H](NC(C)=O)C(=O)N[C@@H](CC(=O)O)C(=O)N[C@@H](Cc1c[nH]cn1)C(=O)N[C@H](Cc1ccccc1)C(=O)N[C@@H](CCCNC(=N)N)C(=O)N[C@@H](Cc1c[nH]c2ccccc12)C(=O)NCC(=O)N[C@@H](CCCCNC(=O)[C@H](CCCCNC(=O)CCCc1ccc(I)cc1)NC(=O)CN1CCN(CC(=O)O)CCN(CC(=O)O)CCN(CC(=O)O)CC1)C(N)=O` [[^68Ga]Ga-DOTA-IPB-NAPamide, metal not drawn]: the tissue uptake at 1.5 h is 5.06 ± 1.08 %ID/g in data set [1] (B16-F10 tumor uptake); 14.2 ± 1.87 %ID/g in data set [1] (blood uptake); 0.28 ± 0.02 %ID/g in data set [1] (brain uptake); 2.02 ± 0.65 %ID/g in data set [1] (fat uptake); 5.14 ± 0.72 %ID/g in data set [1] (heart uptake); 4.57 ± 0.88 %ID/g in data set [1] (kidney uptake). The tissue uptake at 1.5 h was determined as 0.92 ± 1.25 %ID/g in data set [1] (large intestine uptake); 2.64 ± 0.11 %ID/g in data set [1] (liver uptake); 6.32 ± 0.91 %ID/g in data set [1] (lung uptake); 1.01 ± 0.18 %ID/g in data set [1] (muscle uptake); 2.41 ± 0.03 %ID/g in data set [1] (small intestine uptake); 2.37 ± 0.25 %ID/g in data set [1] (spleen uptake). In data set [1] (stomach uptake), this molecule had a tissue uptake at 1.5 h of 2.97 ± 1.38 %ID/g. Also, the SUV at 1.5 h in the data set “in vivo” was 1.31 ± 0.24 SUV.

In the case of `CCCC[C@H](NC(C)=O)C(=O)N[C@@H](CC(=O)O)C(=O)N[C@@H](Cc1c[nH]cn1)C(=O)N[C@H](Cc1ccccc1)C(=O)N[C@@H](CCCNC(=N)N)C(=O)N[C@@H](Cc1c[nH]c2ccccc12)C(=O)NCC(=O)N[C@@H](CCCCNC(=O)[C@H](CCCCNC(=O)CCCc1ccc(I)cc1)NC(=O)CN1CCN(CC(=O)O)CCN(CC(=O)O)CCN(CC(=O)O)CC1)C(N)=O` [[^68Ga]Ga-DOTA-IPB-NAPamide] [metal not drawn], the lipophilicity (logP) in data set [2] was −2.12.

As to `CCCC[C@H](NC(C)=O)C(=O)N[C@@H](CC(=O)O)C(=O)N[C@@H](Cc1c[nH]cn1)C(=O)N[C@H](Cc1ccccc1)C(=O)N[C@@H](CCCNC(=N)N)C(=O)N[C@@H](Cc1c[nH]c2ccccc12)C(=O)NCC(=O)N[C@@H](CCCCNC(=O)CN1CCN(CC(=O)O)CCN(CC(=O)O)CCN(CC(=O)O)CC1)C(N)=O` [[^68Ga]Ga-DOTA-NAPamide, metal not drawn, reference compound], the tissue uptake at 1.5 h is 0.35 ± 0.1 %ID/g in data set [1] (blood uptake); 0.03 ± 0.01 %ID/g in data set [1] (brain uptake); 0.1 ± 0.06 %ID/g in data set [1] (heart uptake); 0.3 ± 0.01 %ID/g in data set [1] (large intestine uptake); 0.33 ± 0.06 %ID/g in data set [1] (lung uptake); 0.08 ± 0.02 %ID/g in data set [1] (muscle uptake). For the same molecule, the tissue uptake at 1.5 h in data set [1] (small intestine uptake) is 0.35 ± 0.13 %ID/g; in data set [1] (stomach uptake), 0.24 ± 0.09 %ID/g. Moreover, in “in vivo”, the SUV at 1.5 h turned out to be 0.43 ± 0.09 SUV.

In the case of `CCCC[C@H](NC(C)=O)C(=O)N[C@@H](CC(=O)O)C(=O)N[C@@H](Cc1c[nH]cn1)C(=O)N[C@H](Cc1ccccc1)C(=O)N[C@@H](CCCNC(=N)N)C(=O)N[C@@H](Cc1c[nH]c2ccccc12)C(=O)NCC(=O)N[C@@H](CCCCNC(=O)CN1CCN(CC(=O)O)CCN(CC(=O)O)CCN(CC(=O)O)CC1)C(N)=O` [[^68Ga]Ga-DOTA-NAPamide] [metal not drawn, reference compound], the log partition coefficient (logP) in data set [2] is reported as −3.46. In data set [3] (1.5 h), the B16-F10 tumor uptake turned out to be 1.18 ± 0.27 %ID/g, the fat uptake came out at 0.16 ± 0.03 %ID/g, the kidney uptake is given as 3.07 ± 0.35 %ID/g and the liver uptake is on record as 0.31 ± 0.08 %ID/g. Besides, the spleen uptake in data set [3] (1.5 h) was found to be 0.15 ± 0.02 %ID/g.

As for `CCCC[C@H](NC(C)=O)C(=O)N[C@@H](CC(=O)O)C(=O)N[C@@H](Cc1c[nH]cn1)C(=O)N[C@H](Cc1ccccc1)C(=O)N[C@@H](CCCNC(=N)N)C(=O)N[C@@H](Cc1c[nH]c2ccccc12)C(=O)NCC(=O)N[C@@H](CCCCNC(=O)[C@H](CCCCNC(=O)CCCc1ccc(I)cc1)NC(=O)CN1CCN(CC(=O)O)CCN(CC(=O)O)CCN(CC(=O)O)CC1)C(N)=O` [[^177Lu]Lu-DOTA-IPB-NAPamide, metal not drawn], the tissue uptake at 24 h was 4.16 ± 1.86 %ID/g in data set [1] (B16-F10 tumor uptake); 3.71 ± 0.73 %ID/g in data set [1] (blood uptake); 0.08 ± 0.01 %ID/g in data set [1] (brain uptake); 0.67 ± 0.34 %ID/g in data set [1] (fat uptake); 1.3 ± 0.12 %ID/g in data set [1] (heart uptake); 5.58 ± 1.59 %ID/g in data set [1] (kidney uptake). Further, the tissue uptake at 24 h was found to be 0.61 ± 0.11 %ID/g in data set [1] (large intestine uptake); 1.97 ± 0.13 %ID/g in data set [1] (liver uptake); 2.5 ± 0.24 %ID/g in data set [1] (lung uptake); 0.33 ± 0.07 %ID/g in data set [1] (muscle uptake); 0.6 ± 0.03 %ID/g in data set [1] (small intestine uptake); 1.32 ± 0.2 %ID/g in data set [1] (spleen uptake). Besides, the tissue uptake at 24 h in data set [1] (stomach uptake) amounted to 0.69 ± 0.11 %ID/g.

For `CCCC[C@H](NC(C)=O)C(=O)N[C@@H](CC(=O)O)C(=O)N[C@@H](Cc1c[nH]cn1)C(=O)N[C@H](Cc1ccccc1)C(=O)N[C@@H](CCCNC(=N)N)C(=O)N[C@@H](Cc1c[nH]c2ccccc12)C(=O)NCC(=O)N[C@@H](CCCCNC(=O)CN1CCN(CC(=O)O)CCN(CC(=O)O)CCN(CC(=O)O)CC1)C(N)=O` [[^177Lu]Lu-DOTA-NAPamide, metal not drawn, reference compound], the tissue uptake at 24 h in data set [1] (B16-F10 tumor uptake) amounted to 0.16 ± 0.15 %ID/g; in data set [1] (fat uptake), 0.01 ± 0.01 %ID/g; in data set [1] (heart uptake), 0.01 %ID/g; in data set [1] (kidney uptake) it was 1.85 ± 0.79 %ID/g; in data set [1] (liver uptake), 0.24 ± 0.13 %ID/g; in data set [1] (lung uptake), 0.04 ± 0.03 %ID/g. Moreover, the tissue uptake at 24 h was determined as 0.01 ± 0.01 %ID/g in data set [1] (small intestine uptake) and 0.07 ± 0.04 %ID/g in data set [1] (spleen uptake).

Take `CCCC[C@H](NC(C)=O)C(=O)N[C@@H](CC(=O)O)C(=O)N[C@@H](Cc1c[nH]cn1)C(=O)N[C@H](Cc1ccccc1)C(=O)N[C@@H](CCCNC(=N)N)C(=O)N[C@@H](Cc1c[nH]c2ccccc12)C(=O)NCC(=O)N[C@@H](CCCCNC(=O)CN1CCN(CC(=O)O)CCN(CC(=O)O)CCN(CC(=O)O)CC1)C(N)=O` [[^177Lu]Lu-DOTA-NAPamide] [metal not drawn, reference compound]: the log partition coefficient (logP) in data set [2] is −2.6. In data set [3] (24 h), this molecule returned a brain uptake of 0.00 ± 0.00 %ID/g and a muscle uptake of 0.00 ± 0.00 %ID/g.

The values are drawn from publication PMC10536547, “Investigation of the Effect on the Albumin Binding Moiety for the Pharmacokinetic Properties of ^68Ga-, ^205/206Bi-, and ^177Lu-Labeled NAPamide-Based Radiopharmaceuticals” (Pharmaceuticals, 2023).
